Laboratory results: patent US20220144960A1 (NANJING LEGEND BIOTECH, published 2022)
Like-named read-outs stand apart in the source and are kept apart here.

Experiments:
Assay in all cases: cell-based or functional assay
[1] = target: T1, CD30 on CD30-expressing tumor cell lines (HH, MJ, H9) (UniProt P28908 19-595)
T1 sequence (looked up): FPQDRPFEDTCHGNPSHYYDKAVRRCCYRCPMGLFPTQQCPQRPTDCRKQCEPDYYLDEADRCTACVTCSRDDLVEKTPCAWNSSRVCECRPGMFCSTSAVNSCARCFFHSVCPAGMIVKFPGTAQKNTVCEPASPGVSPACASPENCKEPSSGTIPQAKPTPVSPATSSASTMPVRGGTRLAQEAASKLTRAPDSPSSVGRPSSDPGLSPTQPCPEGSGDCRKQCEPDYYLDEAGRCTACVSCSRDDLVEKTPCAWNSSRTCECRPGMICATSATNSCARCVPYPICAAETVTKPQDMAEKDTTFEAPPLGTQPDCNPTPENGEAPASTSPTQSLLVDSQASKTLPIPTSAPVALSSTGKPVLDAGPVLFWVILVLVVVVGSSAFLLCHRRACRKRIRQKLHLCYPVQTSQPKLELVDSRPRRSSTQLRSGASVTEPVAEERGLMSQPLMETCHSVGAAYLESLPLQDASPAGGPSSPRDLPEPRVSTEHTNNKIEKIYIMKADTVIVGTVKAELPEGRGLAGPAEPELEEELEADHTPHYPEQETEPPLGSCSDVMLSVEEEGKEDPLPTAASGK

[2] = target: T1, CD30 on CD30-expressing tumor cell …; remark: listed apart in the source
[3] = target: T1, CD30 on CD30-expressing tumor cell …; remark: listed apart in the source
[4] = target: T1, CD30 on CD30-expressing tumor cell …; remark: listed apart in the source

B1: AS47863bbz CAR (other)
chain: QVQLEESGGGSVQAGETLRLSCTASGSTFGDSDMGWYRQAPGNACELVSIISSDGRTYYVDSVKGRFTISQDNAVSTVYLQMNSLKPEDTGVYYCAADLRQYCRDGRCCGYWGQGTQVTVSSTTTPAPRPPTPAPTIASQPLSLRPEACRPAAGGAVHTRGLDFACDIYIWAPLAGTCGVLLLSLVITLYCKRGRKKLLYIFKQPFMRPVQTTQEEDGCSCRFPEEEEGGCELRVKFSRSADAPAYKQGQNQLYNELNLGRREEYDVLDKRRGRDPEMGGKPRRKNPQEGLYNELQKDKMAEAYSEIGMKGERRRGKGHDGLYQGLSTATKDTYDALHMQALPPR
% MJ cell lysis E:T = 0.5:1 (LDH assay, CAR T cells) [1]: 65%

B2: AS53445bbz CAR (other)
chain: QVQLVESGGGSVQAGGSLRLSCTASGYIFCMGWFRQAPGKAREGIATIYTGGDSTYYDDSVKGRFTISRDNAKNTVYLQMNSLKPEDTAMYYCAAGGQECYLTNWVSYWGQGTQVTVSSTTTPAPRPPTPAPTIASQPLSLRPEACRPAAGGAVHTRGLDFACDIYIWAPLAGTCGVLLLSLVITLYCKRGRKKLLYIFKQPFMRPVQTTQEEDGCSCRFPEEEEGGCELRVKFSRSADAPAYKQGQNQLYNELNLGRREEYDVLDKRRGRDPEMGGKPRRKNPQEGLYNELQKDKMAEAYSEIGMKGERRRGKGHDGLYQGLSTATKDTYDALHMQALPPR
% MJ cell lysis E:T = 0.5:1 (LDH assay, CAR T cells) [1]: 24.6%

B3: AS57911bbz CAR (other)
chain: DIQMTQSPSSLSASVGDRVTITCRASQSVSSAVAWYQQKPGKAPKLLIYSASSLYSGVPSRFSGSRSGTDFTLTISSLQPEDFATYYCQQSHALITFGQGTKVEIKGGGGSGGGGSGGGGSEVQLVESGGGLVQPGGSLRLSCAASGFNISSSYIHWVRQAPGKGLEWVAYISSYYSYTYYADSVKGRFTISADTSKNTAYLQMNSLRAEDTAVYYCARGYPYGMDYWGQGTLVTVSSTTTPAPRPPTPAPTIASQPLSLRPEACRPAAGGAVHTRGLDFACDIYIWAPLAGTCGVLLLSLVITLYCKRGRKKLLYIFKQPFMRPVQTTQEEDGCSCRFPEEEEGGCELRVKFSRSADAPAYKQGQNQLYNELNLGRREEYDVLDKRRGRDPEMGGKPRRKNPQEGLYNELQKDKMAEAYSEIGMKGERRRGKGHDGLYQGLSTATKDTYDALHMQALPPR
% MJ cell lysis E:T = 0.5:1 (LDH assay, CAR T cells) [1]: 43.9%

B4: AS57659bbz CAR (other)
chain: DIQMTQSPSSLSASVGDRVTITCRASQSVSSAVAWYQQKPGKAPKLLIYSASSLYSGVPSRFSGSRSGTDFTLTISSLQPEDFATYYCQQPYYLITFGQGTKVEIKGGGGSGGGGSGGGGSEVQLVESGGGLVQPGGSLRLSCAASGFNIYSYYIHWVRQAPGKGLEWVASIYSSYSSTYYADSVKGRFTISADTSKNTAYLQMNSLRAEDTAVYYCARSWFSYPGLDYWGQGTLVTVSSTTTPAPRPPTPAPTIASQPLSLRPEACRPAAGGAVHTRGLDFACDIYIWAPLAGTCGVLLLSLVITLYCKRGRKKLLYIFKQPFMRPVQTTQEEDGCSCRFPEEEEGGCELRVKFSRSADAPAYKQGQNQLYNELNLGRREEYDVLDKRRGRDPEMGGKPRRKNPQEGLYNELQKDKMAEAYSEIGMKGERRRGKGHDGLYQGLSTATKDTYDALHMQALPPR
% MJ cell lysis E:T = 0.5:1 (LDH assay, CAR T cells) [1]: 42%

B5: 5F11bbz CAR (other)
chain: DIQMTQSPTSLSASVGDRVTITCRASQGISSWLTWYQQKPEKAPKSLIYAASSLQSGVPSRFSGSGSGTDFTLTISSLQPEDFATYYCQQYDSYPITFGQGTRLEIKGSTSGSGKPGSGEGSTKGQVQLQQWGAGLLKPSETLSLTCAVYGGSFSAYYWSWIRQPPGKGLEWIGDINHGGGTNYNPSLKSRVTISVDTSKNQFSLKLNSVTAADTAVYYCASLTAYWGQGSLVTVSSTTTPAPRPPTPAPTIASQPLSLRPEACRPAAGGAVHTRGLDFACDIYIWAPLAGTCGVLLLSLVITLYCKRGRKKLLYIFKQPFMRPVQTTQEEDGCSCRFPEEEEGGCELRVKFSRSADAPAYKQGQNQLYNELNLGRREEYDVLDKRRGRDPEMGGKPRRKNPQEGLYNELQKDKMAEAYSEIGMKGERRRGKGHDGLYQGLSTATKDTYDALHMQALPPR
% H9 cell lysis E:T = 0.2:1 (FACS method, CAR T cells) [2]: 16%
% MJ cell lysis E:T = 0.2:1 (FACS method, CAR T cells) [2]: 2.3%
% H9 cell lysis E:T = 2:1 (LDH assay, CAR T cells) [3]: 45%
% MJ cell lysis E:T = 1:1 (LDH assay, CAR T cells) [3]: 41%
% H9 cell lysis E:T = 2:1 (LDH assay, CAR T cells) [4]: 45%
% MJ cell lysis E:T = 1:1 (LDH assay, CAR T cells) [4]: 41%
% MJ cell lysis E:T = 0.5:1 (LDH assay, CAR T cells) [1]: 29.9%

B6: AS48433bbz CAR (other)
chain: QIQLVESGGGSVQAGETLRLSCTASGSTFGDSDMGWYRQAPGNACELVSIISSDGRTYYVDSVKGRFTISQDNAVSTVYLQMNSLNPEDTGVYYCAADLRLNCRDGRCCGYWGQGTQVTVSSTTTPAPRPPTPAPTIASQPLSLRPEACRPAAGGAVHTRGLDFACDIYIWAPLAGTCGVLLLSLVITLYCKRGRKKLLYIFKQPFMRPVQTTQEEDGCSCRFPEEEEGGCELRVKFSRSADAPAYKQGQNQLYNELNLGRREEYDVLDKRRGRDPEMGGKPRRKNPQEGLYNELQKDKMAEAYSEIGMKGERRRGKGHDGLYQGLSTATKDTYDALHMQALPPR
% MJ cell lysis E:T = 0.5:1 (LDH assay, CAR T cells) [1]: 50.5%

B7: AS48542VH5bbz CAR (other)
chain: EVQLVESGGGLVQPGGSLRLSCATSAFTFDGPDMAWYRQAPGKGCELVSIISADGRTYYADSVKGRFTISRDNSKNTVYLQMNSLRAEDTAVYYCALDPRKNCRGGYCCANWGQGTLVTVSSTTTPAPRPPTPAPTIASQPLSLRPEACRPAAGGAVHTRGLDFACDIYIWAPLAGTCGVLLLSLVITLYCKRGRKKLLYIFKQPFMRPVQTTQEEDGCSCRFPEEEEGGCELRVKFSRSADAPAYKQGQNQLYNELNLGRREEYDVLDKRRGRDPEMGGKPRRKNPQEGLYNELQKDKMAEAYSEIGMKGERRRGKGHDGLYQGLSTATKDTYDALHMQALPPR
% H9 cell lysis E:T = 0.2:1 (FACS method, CAR T cells) [2]: 38%
% MJ cell lysis E:T = 0.2:1 (FACS method, CAR T cells) [2]: 58.6%
% H9 cell lysis E:T = 2:1 (LDH assay, CAR T cells) [3]: 62%
% MJ cell lysis E:T = 1:1 (LDH assay, CAR T cells) [3]: 65%
% H9 cell lysis E:T = 2:1 (LDH assay, CAR T cells) [4]: 62%
% MJ cell lysis E:T = 1:1 (LDH assay, CAR T cells) [4]: 65%

B8: AS48463VH4bbz CAR (other)
chain: EVQLLESGGGLVQPGGSLRLSCAASGFTFANSDMGWYRQAPGKGCELVSIISSHGGTTYYVDSVKGRFTISRDNSKNTLYLQMNSLRAEDTAVYYCVADPRSNCRGGYCCGYWGQGTLVTVSSTTTPAPRPPTPAPTIASQPLSLRPEACRPAAGGAVHTRGLDFACDIYIWAPLAGTCGVLLLSLVITLYCKRGRKKLLYIFKQPFMRPVQTTQEEDGCSCRFPEEEEGGCELRVKFSRSADAPAYKQGQNQLYNELNLGRREEYDVLDKRRGRDPEMGGKPRRKNPQEGLYNELQKDKMAEAYSEIGMKGERRRGKGHDGLYQGLSTATKDTYDALHMQALPPR
% H9 cell lysis E:T = 2:1 (LDH assay, CAR T cells) [4]: 64%
% MJ cell lysis E:T = 1:1 (LDH assay, CAR T cells) [4]: 67%

B9: AS47863VH4bbz CAR (other)
chain: EVQLVESGGGLVQPGGSLRLSCAASGSTFGDSDMGWYRQAPGKGCELVSIISSDGRTYYVDSVKGRFTISQDNSKNTLYLQMNSLRAEDTAVYYCAADLRQYCRDGRCCGYWGQGTLVTVSSTTTPAPRPPTPAPTIASQPLSLRPEACRPAAGGAVHTRGLDFACDIYIWAPLAGTCGVLLLSLVITLYCKRGRKKLLYIFKQPFMRPVQTTQEEDGCSCRFPEEEEGGCELRVKFSRSADAPAYKQGQNQLYNELNLGRREEYDVLDKRRGRDPEMGGKPRRKNPQEGLYNELQKDKMAEAYSEIGMKGERRRGKGHDGLYQGLSTATKDTYDALHMQALPPR
% H9 cell lysis E:T = 2:1 (LDH assay, CAR T cells) [4]: 63%
% MJ cell lysis E:T = 1:1 (LDH assay, CAR T cells) [4]: 57%

B10: AS48463bbz CAR (other)
chain: QVHLMESGGGSVQAGETLRLSCTASGFTFANSDMGWYRQAPGNACELVSIISSHGGTTYYVDSVKGRFTISRHNAENTVYLRMTSLKPEDTALYYCVADPRSNCRGGYCCGYWGPGTQVTVSSTTTPAPRPPTPAPTIASQPLSLRPEACRPAAGGAVHTRGLDFACDIYIWAPLAGTCGVLLLSLVITLYCKRGRKKLLYIFKQPFMRPVQTTQEEDGCSCRFPEEEEGGCELRVKFSRSADAPAYKQGQNQLYNELNLGRREEYDVLDKRRGRDPEMGGKPRRKNPQEGLYNELQKDKMAEAYSEIGMKGERRRGKGHDGLYQGLSTATKDTYDALHMQALPPR
% MJ cell lysis E:T = 0.5:1 (LDH assay, CAR T cells) [1]: 60.8%

B11: AS48481bbz CAR (other)
chain: EVQLVASGGGSVQAGETLRLSCTASGFTFADSAMGWYRKGPGNVCDLVAIIRTDGTTYYGDSAKGRFTISRDNAKSTLYLQMNSLKPEDTAVYFCAADRETSFIGGSWCVAKYWDQGTQVTVSSTTTPAPRPPTPAPTIASQPLSLRPEACRPAAGGAVHTRGLDFACDIYIWAPLAGTCGVLLLSLVITLYCKRGRKKLLYIFKQPFMRPVQTTQEEDGCSCRFPEEEEGGCELRVKFSRSADAPAYKQGQNQLYNELNLGRREEYDVLDKRRGRDPEMGGKPRRKNPQEGLYNELQKDKMAEAYSEIGMKGERRRGKGHDGLYQGLSTATKDTYDALHMQALPPR
% MJ cell lysis E:T = 0.5:1 (LDH assay, CAR T cells) [1]: 45.1%
